{
  "source": "paper PMC12403130",
  "about": "“A β-cap on the FliPQR protein-export channel acts as the cap for initial flagellar rod assembly” (Proceedings of the National Academy of Sciences of the …, 2025)",
  "proteins": {"B1": {"name": "FliP (natural protein)", "chain": "QLPGLISQPLAGGGQSWSLSVQTLVFITSLTFLPAILLMMTSFTRIIIVFGLLRNALGTPSAPPNQVLLGLALFLTFFIMSPVIDKIYVDAYQPFSEQKISMQEALDKGAQPLRAFMLRQTREADLALFARLANSGPLQGPEAVPMRILLPAYVTSELKTAFQIGFTIFIPFLIIDLVIASVLMALGMMMVPPATIALPFKLMLFVLVDGWQLLMGSLAQSFYS", "notes": "FliP, Salmonella enterica serovar Typhimurium; signal peptide (residues 1 to 21) cleaved between Ala-21 and Gln-22 during membrane insertion; the mature protein begins at Gln-22; Five copies of FliP stand in the FliP5-FliQ4-FliR1 complex; also called mature FliP; FliP^1; source: membranes solubilised with 1% LMNG; reconstituted in a peptidisc"}},
  "target": "the molecule itself",
  "assay": "cryo-EM structure; FliP, FliQ and FliR-His co-expressed in Salmonella SJW1368, complex solubilised with LMNG, purified and reconstituted in a peptidisc; single-particle analysis, C1 symmetry, 3.0 Å, closed form",
  "data": [
    {"protein": "B1", "values": [
      {"measurement": "stoichiometry N", "value": 5}
    ]}
  ]
}
